From PMC12617621 (Computational and Structural Biotechnology Journal, 2025)

T1: (NPNA)4 peptide (Plasmodium falciparum CSP repeat …)
T1 chain: NPNANPNANPNANPNA

B1: native anti-NANP Fab (Fab, V domains shown)
VH: EVQLVESGGGLVQPGRSLRLPCTASGFSFGDHAMSWVRQAPGKGLEWVGFIRKTTYGATTHYAAAVRGRFTISRDDSKSIVYLQMNSLKTEDTAVYFCTRVQLDYGPGYQYYGMDVWGQGTTVTVSS
VL: ESVLTQPPSVSGAPGQRVTISCTGMNSNIGAGYDVYWYQQLPGRAPKLLIYGNSNRPSGVPDRFSGSRSGTSASLAITGLQAEDEADYYCQSYDTSLNGWAFGGGTKLTVL
B2: G112T mutant anti-NANP Fab (Fab, V domains shown)
VH: B1 VH
VL: B1 VL

Molecular target: T1, (NPNA)4 peptide
Test: SPR

Row | Binder | binding result
1 | B1 | binds
2 | B2 | binds
